We go through one molecule from patent US11091512B2, “Modulation of antigen immunogenicity by deleting epitopes recognized by NKT cells” (Imnate Sarl, priority 2010, dated 2021).

This assay has as its system CD4+ T cells and NKT cells. Description: peripheral blood CD4+ T cells cultured with human dendritic cells loaded with natural or mutated antibody. Format: cell-based. To be noted: 5 to 7 days culture. The source says:
Monoclonal human antibodies of the IgG4 isotype were derived from the peripheral blood B lymphocytes by transformation with the Epstein-Barr virus. The genomic sequence of such antibodies was obtained from transformed B cells. A viral vector containing the corresponding cDNA sequence was constructed and used for transfection of CHO cells. All these methods are known in the art (see for instance, Jacquemin et al Blood 92: 496-506, 1998).
The hydrophobic aminoacid residues located in position 1 in the peptides of SEQ ID18 and SEQ ID20 were mutated to a serine and the mutated antibody produced by transfected CHO cells.
Peripheral blood CD4+ T cells obtained as above were exposed in culture medium to human dendritic cells (derived from human peripheral blood monocytes by methods known in the art) and loaded with either the antibody in natural configuration (SEQ ID21) or its mutated counterpart (SEQ ID22). After culturing the cells with CD4+ T cells for 5 to 7 days, the population of CD4+ T cells activated by either natural or mutated antibody was evaluated. CD4+ NKT cells were separated from CD4+ T cells using an antibody to NKG2D, a surface marker associated with NK or NKT cells only.

B1: SEQ ID22: mutated counterpart of the IgG4 antibody, position 1 residues of SEQ ID18 and SEQ ID20 motifs mutated to serine (protein, listed as Homo sapiens)
chain: ASTKGPSVFPLAPCSRSTSESTAALGCLVKDYFPEPVTVSWNSGALTSGVHTFPAVLQSSGLYSLSSVVTVPSSSLGTKTYTCNVDHKPSNTKVDKRVESKYGPPCPSCPAPEFLGGPSVFLFPPKPKDTLMISRTPEVTCVVVDVSQEDPEVQFNWYVDGVEVHNAKTKPREEQFNSTSRVVSVLTVLHQDWLNGKEYKCKVSNKGLPSSIEKTISKAKGQPREPQVYTLPPSQEEMTKNQVSLTCLVKGFYPSDIAVEWESNGQPENNYKTTPPVLDSDGSFFLYSRLTVDKSRWQEGNVFSCSVMSEALHNHYTQKSLSLSLGK
On to B1, for which the “activation of class II restricted CD4+ T cells” value is “only activate class II restricted CD4+ T cells”. The “activation of NKT cells” value (NKT cells separated with antibody to NKG2D) is given as “not NKT cells”.
